# Values quoted from earlier work in article PMC12114883.
# Target: CLV1 (Arabidopsis thaliana) (UniProt Q9SYQ8)
# Sequence of UniProt Q9SYQ8 (Q9SYQ8 25-638): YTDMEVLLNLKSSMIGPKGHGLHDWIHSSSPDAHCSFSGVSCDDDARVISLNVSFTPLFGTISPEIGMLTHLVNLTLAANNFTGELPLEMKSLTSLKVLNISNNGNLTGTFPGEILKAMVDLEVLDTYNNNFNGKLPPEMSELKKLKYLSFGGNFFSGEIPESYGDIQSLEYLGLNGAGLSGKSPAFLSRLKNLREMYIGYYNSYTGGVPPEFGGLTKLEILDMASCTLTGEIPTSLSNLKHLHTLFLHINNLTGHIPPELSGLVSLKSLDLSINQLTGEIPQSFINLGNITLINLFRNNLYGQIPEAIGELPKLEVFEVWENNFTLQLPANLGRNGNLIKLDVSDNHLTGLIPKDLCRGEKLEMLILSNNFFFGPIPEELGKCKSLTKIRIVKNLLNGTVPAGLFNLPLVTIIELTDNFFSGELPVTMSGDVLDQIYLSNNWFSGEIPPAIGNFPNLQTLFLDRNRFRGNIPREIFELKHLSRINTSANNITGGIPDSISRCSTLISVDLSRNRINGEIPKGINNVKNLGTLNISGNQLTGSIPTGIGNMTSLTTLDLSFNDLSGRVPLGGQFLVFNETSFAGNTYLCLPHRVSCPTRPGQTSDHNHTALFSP
substance,measurement,value
CLV3 (from UniProt Q9XF04),Kd,17.5 nM
